Laboratory results taken from US20210284734A1 (SYMPHOGEN A S, published 2021).
Numbering of substitutions follows the chain as printed.

Experiments:
Assay in all cases: SPR, Fab on captured PD-1-Fc
human PD-1 ECD-Fc S87A = biological target: T1, human PD-1 ECD-Fc S87A (human, UniProt Q15116 21-170)
T1 construct: not shown: human IgG1 Fc, residues P101-K330

human PD-1 ECD-Fc Q165A = biological target: T2, human PD-1 ECD-Fc Q165A (human, UniProt Q15116 21-170)
T2 construct: not shown: human IgG1 Fc, residues P101-K330

human PD-1 ECD-Fc A80G = biological target: T3, human PD-1 ECD-Fc A80G (human, UniProt Q15116 21-170)
T3 construct: not shown: human IgG1 Fc, residues P101-K330

human PD-1 ECD-Fc V64K = biological target: T4, human PD-1 ECD-Fc V64K (human, UniProt Q15116 21-170)
T4 construct: also called Rat mutation V64K; not shown: human IgG1 Fc, residues P101-K330

human PD-1 ECD-Fc K131A = biological target: T5, human PD-1 ECD-Fc K131A (human, UniProt Q15116 21-170)
T5 construct: not shown: human IgG1 Fc, residues P101-K330

human PD-1 ECD-Fc A149G = biological target: T6, human PD-1 ECD-Fc A149G (human, UniProt Q15116 21-170)
T6 construct: not shown: human IgG1 Fc, residues P101-K330

human PD-1 ECD-Fc G124A = biological target: T7, human PD-1 ECD-Fc G124A (human, UniProt Q15116 21-170)
T7 construct: not shown: human IgG1 Fc, residues P101-K330

human PD-1 ECD-Fc P21A = biological target: T8, human PD-1 ECD-Fc P21A (human, UniProt Q15116 22-170)
T8 construct: not shown: human IgG1 Fc, residues P101-K330

human PD-1 ECD-Fc S157A = biological target: T9, human PD-1 ECD-Fc S157A (human, UniProt Q15116 21-170)
T9 construct: not shown: human IgG1 Fc, residues P101-K330

human PD-1 ECD-Fc P162A = biological target: T10, human PD-1 ECD-Fc P162A (human, UniProt Q15116 21-170)
T10 construct: not shown: human IgG1 Fc, residues P101-K330

human PD-1 ECD-Fc D29A = biological target: T11, human PD-1 ECD-Fc D29A (human, UniProt Q15116 21-170)
T11 construct: not shown: human IgG1 Fc, residues P101-K330

human PD-1 ECD-Fc D48A = biological target: T12, human PD-1 ECD-Fc D48A (human, UniProt Q15116 21-170)
T12 construct: not shown: human IgG1 Fc, residues P101-K330

human PD-1 ECD-Fc Q91A = biological target: T13, human PD-1 ECD-Fc Q91A (human, UniProt Q15116 21-170)
T13 construct: not shown: human IgG1 Fc, residues P101-K330

human PD-1 ECD-Fc D26A = biological target: T14, human PD-1 ECD-Fc D26A (human, UniProt Q15116 21-170)
T14 construct: not shown: human IgG1 Fc, residues P101-K330

[1] = biological target: T15, human PD-1 ECD-Fc chimeric construct 21 (human, UniProt Q15116 21-170)
T15 construct: printed run together as I134VK135V; not shown: human IgG1 Fc, residues P101-K330
T15 chain: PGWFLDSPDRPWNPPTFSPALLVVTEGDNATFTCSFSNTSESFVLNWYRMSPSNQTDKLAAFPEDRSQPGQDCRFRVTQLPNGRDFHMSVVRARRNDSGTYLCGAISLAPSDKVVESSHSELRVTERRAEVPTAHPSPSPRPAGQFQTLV

[2] = biological target: T16, human PD-1 ECD-Fc chimeric construct 4 (human, UniProt Q15116 21-170)
T16 construct: not shown: human IgG1 Fc, residues P101-K330
T16 chain: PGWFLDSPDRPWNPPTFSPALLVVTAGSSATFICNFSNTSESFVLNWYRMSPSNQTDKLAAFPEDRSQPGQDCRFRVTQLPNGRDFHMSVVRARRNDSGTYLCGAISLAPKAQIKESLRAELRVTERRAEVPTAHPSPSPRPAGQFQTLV

[3] = biological target: T17, human PD-1 ECD-Fc chimeric construct 18 (human, UniProt Q15116 21-170)
T17 construct: not shown: human IgG1 Fc, residues P101-K330
T17 chain: T16 chain with A26E, S28D, S29N, I33T, N35S, T100F, L102Y, A105L

[4] = biological target: T18, human PD-1 ECD-Fc chimeric construct 17 (human, UniProt Q15116 21-170)
T18 construct: not shown: human IgG1 Fc, residues P101-K330
T18 chain: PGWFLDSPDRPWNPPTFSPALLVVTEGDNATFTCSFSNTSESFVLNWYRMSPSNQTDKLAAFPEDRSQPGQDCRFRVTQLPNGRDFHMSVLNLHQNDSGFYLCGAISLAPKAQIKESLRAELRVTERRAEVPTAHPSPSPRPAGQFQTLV

[5] = biological target: T19, human PD-1 ECD-Fc chimeric construct 3 (human, UniProt Q15116 21-170)
T19 construct: not shown: human IgG1 Fc, residues P101-K330
T19 chain: T16 chain with L21T, V23T, V24R, T25P, I33T, N35S

[6] = biological target: T20, human PD-1 ECD-Fc chimeric construct 6 (human, UniProt Q15116 21-170)
T20 construct: not shown: human IgG1 Fc, residues P101-K330
T20 chain: T16 chain with A26E, S28D, S29N, I33T, N35S, F36I, T39S, E41L, S42E, V44N

[7] = biological target: T21, human PD-1 ECD-Fc chimeric construct 15 (human, UniProt Q15116 21-170)
T21 construct: not shown: human IgG1 Fc, residues P101-K330
T21 chain: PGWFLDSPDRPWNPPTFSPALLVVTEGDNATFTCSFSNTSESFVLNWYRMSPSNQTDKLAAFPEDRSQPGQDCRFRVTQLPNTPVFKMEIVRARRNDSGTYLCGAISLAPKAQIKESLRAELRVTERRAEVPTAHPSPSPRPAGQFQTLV

T5 sequence (Q15116 21-170 K131A): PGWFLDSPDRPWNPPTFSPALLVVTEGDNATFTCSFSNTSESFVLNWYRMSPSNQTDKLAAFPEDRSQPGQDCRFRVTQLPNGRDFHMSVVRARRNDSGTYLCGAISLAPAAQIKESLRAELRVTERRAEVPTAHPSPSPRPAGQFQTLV
T7 sequence (Q15116 21-170 G124A): as the sequence (Q15116 21-170 K131A) above, with G104A, A111K counted along it
T6 sequence (Q15116 21-170 A149G): as the sequence (Q15116 21-170 K131A) above, with A111K, A129G counted along it
T12 sequence (Q15116 21-170 D48A): as the sequence (Q15116 21-170 K131A) above, with D28A, A111K counted along it
T8 sequence (Q15116 21-170 P21A): as the sequence (Q15116 21-170 K131A) above, with P1A, A111K counted along it
T3 sequence (Q15116 21-170 A80G): as the sequence (Q15116 21-170 K131A) above, with A60G, A111K counted along it
T13 sequence (Q15116 21-170 Q91A): as the sequence (Q15116 21-170 K131A) above, with Q71A, A111K counted along it
T1 sequence (Q15116 21-170 S87A): as the sequence (Q15116 21-170 K131A) above, with S67A, A111K counted along it
T14 sequence (Q15116 21-170 D26A): as the sequence (Q15116 21-170 K131A) above, with D6A, A111K counted along it
T11 sequence (Q15116 21-170 D29A): as the sequence (Q15116 21-170 K131A) above, with D9A, A111K counted along it
T9 sequence (Q15116 21-170 S157A): as the sequence (Q15116 21-170 K131A) above, with A111K, S137A counted along it

B1: 12865.17150 Fab (Fab, V domains shown)
VH: EVQLLESGGGLVQPGGSLRLSCAASGFDFSDHGMQWVRQAPGKGLEYVGVIDTTGRYTYYAPAVKGRATISRDNSKNTLYLQMNSLRAEDTAVYYCAKTTCVGGYLCNTVGSIDAWGQGTLVTVSS
VL: SYELTQDPAVSVALGQTVRITCSGGGSSSYYGWYQQKPGQAPVTVIYDDTNRPSGIPDRFSGSSSGNTASLTITGAQAEDEADYYCGGYEGSSHAGIFGSGTKVTVL
notes: monomeric Fab fragment
KD mutant/KD wild-type (human PD-1 ECD-Fc S87A): 0.9 ratio | KD mutant/KD wild-type (human PD-1 ECD-Fc Q165A): 1.1 ratio | KD mutant/KD wild-type (human PD-1 ECD-Fc A80G): 0.4 ratio | KD mutant/KD wild-type (human PD-1 ECD-Fc V64K): 1.3 ratio | binding result (human PD-1 ECD-Fc K131A): no binding (tested: 1 nM to 50 nM) | KD mutant/KD wild-type (human PD-1 ECD-Fc A149G): 1 ratio | KD mutant/KD wild-type (human PD-1 ECD-Fc G124A): 4 ratio | KD mutant/KD wild-type (human PD-1 ECD-Fc P21A): 1 ratio | KD mutant/KD wild-type (human PD-1 ECD-Fc S157A): 1 ratio | KD mutant/KD wild-type (human PD-1 ECD-Fc P162A): 1.1 ratio | KD mutant/KD wild-type (human PD-1 ECD-Fc D29A): 0.9 ratio | KD mutant/KD wild-type (human PD-1 ECD-Fc D48A): 0.6 ratio | KD mutant/KD wild-type (human PD-1 ECD-Fc Q91A): 1 ratio | KD mutant/KD wild-type (human PD-1 ECD-Fc D26A): 0.8 ratio | binding result [1]: no binding (tested: 1 nM to 50 nM) | KD mutant/KD wild-type [2]: 0.6 ratio | KD mutant/KD wild-type [3]: 4.6 ratio | KD mutant/KD wild-type [4]: 0.5 ratio | KD mutant/KD wild-type [5]: 0.6 ratio | KD mutant/KD wild-type [6]: 0.2 ratio | KD mutant/KD wild-type [7]: 0.8 ratio

B2: 13112.15380 Fab (Fab, V domains shown)
VH: EVQLLESGGGLVQPGGSLRLSCAASGFTFSSYNMFWVRQAPGKGLEFVAEISGSNTGSRTWYAPAVKGRATISRDNSKNTLYLQMNSLRAEDTAVYYCAKSIYGGYCAGGYSCGVGLIDAWGQGTLVTVSS
VL: SYELTQDPAVSVALGQTVRITCSGGSSDYYGWFQQKPGQAPVTVIYYNNKRPSDIPDRFSGSSSGNTASLTITGAQAEDEADYYCGNADSSVGVFGSGTKVTVL
KD mutant/KD wild-type (human PD-1 ECD-Fc S87A): 1 ratio | KD mutant/KD wild-type (human PD-1 ECD-Fc Q165A): 1.1 ratio | KD mutant/KD wild-type (human PD-1 ECD-Fc A80G): 1 ratio | KD mutant/KD wild-type (human PD-1 ECD-Fc V64K): 1 ratio | KD mutant/KD wild-type (human PD-1 ECD-Fc K131A): 0.9 ratio | KD mutant/KD wild-type (human PD-1 ECD-Fc A149G): 1 ratio | KD mutant/KD wild-type (human PD-1 ECD-Fc G124A): 1 ratio | KD mutant/KD wild-type (human PD-1 ECD-Fc P21A): 1.1 ratio | KD mutant/KD wild-type (human PD-1 ECD-Fc S157A): 1 ratio | KD mutant/KD wild-type (human PD-1 ECD-Fc P162A): 1.1 ratio | KD mutant/KD wild-type (human PD-1 ECD-Fc D29A): 1 ratio | KD mutant/KD wild-type (human PD-1 ECD-Fc D48A): 2.4 ratio | KD mutant/KD wild-type (human PD-1 ECD-Fc Q91A): 1 ratio | KD mutant/KD wild-type (human PD-1 ECD-Fc D26A): 1.2 ratio | KD mutant/KD wild-type [1]: 0.5 ratio | KD mutant/KD wild-type [2]: 0.6 ratio | KD mutant/KD wild-type [3]: 1.5 ratio | KD mutant/KD wild-type [4]: 0.7 ratio | KD mutant/KD wild-type [5]: 0.7 ratio | KD mutant/KD wild-type [6]: 0.8 ratio | KD mutant/KD wild-type [7]: 0.9 ratio

B3: 12819.17149 Fab (Fab, V domains shown)
VH: EVQLLESGGGLVQPGGSLRLSCAASGFTFTRYDMVWVRQAPGKGLEWVAGIGDSNKMTRYAPAVKGRATISRDNSKNTLYLQMNSLRAEDTAVYYCAKGSCIACWDEAGRIDAWGQGTLVTVSS
VL: SYELTQDPAVSVALGQTVRITCSGGGSYDGSSYYGWYQQKPGQAPVTVIYNNNNRPSDIPDRFSGSSSGNTASLTITGAQAEDEADYYCGSYDRPETNSDYVGMFGSGTKVTVL
notes: monomeric Fab fragment
KD mutant/KD wild-type (human PD-1 ECD-Fc S87A): 1.3 ratio | KD mutant/KD wild-type (human PD-1 ECD-Fc Q165A): 1.1 ratio | KD mutant/KD wild-type (human PD-1 ECD-Fc A80G): 1.2 ratio | KD mutant/KD wild-type (human PD-1 ECD-Fc V64K): 35.7 ratio | binding result (human PD-1 ECD-Fc K131A): no binding (tested: 1 nM to 50 nM) | KD mutant/KD wild-type (human PD-1 ECD-Fc A149G): 0.8 ratio | KD mutant/KD wild-type (human PD-1 ECD-Fc G124A): 0.5 ratio | KD mutant/KD wild-type (human PD-1 ECD-Fc P21A): 2.1 ratio | KD mutant/KD wild-type (human PD-1 ECD-Fc S157A): 0.9 ratio | KD mutant/KD wild-type (human PD-1 ECD-Fc P162A): 1.3 ratio | KD mutant/KD wild-type (human PD-1 ECD-Fc D29A): 1 ratio | KD mutant/KD wild-type (human PD-1 ECD-Fc D48A): 1 ratio | KD mutant/KD wild-type (human PD-1 ECD-Fc Q91A): 0.8 ratio | KD mutant/KD wild-type (human PD-1 ECD-Fc D26A): 1.1 ratio | binding result [1]: no binding (tested: 1 nM to 50 nM) | KD mutant/KD wild-type [2]: 0.3 ratio | KD mutant/KD wild-type [3]: 3.8 ratio | KD mutant/KD wild-type [4]: 0.2 ratio | KD mutant/KD wild-type [5]: 1.3 ratio | KD mutant/KD wild-type [6]: 7.1 ratio | KD mutant/KD wild-type [7]: 1.3 ratio
